According to patent US20100041597A1, “PEPTIDES TARGETED TO PROTEIN KINASE C ISOFORMS AND USES THEREOF” (priority 2005, published 2010):

Molecular target: PKC-α (Homo sapiens, UniProt P17252)
Experiment: Competitive binding assay using cell extracts (Western blot)
Design: key to Affinity for PKC isoform α: —: no detectable affinity; Low to very low affinity at 10X or 20X or both PRE concentrations in at least one cell line in the cell extract assay; Low affinity in purified isoform assay.; Moderate affinity at 10X or 20X or both PRE concentrations in at least one cell line in the cell extract assay.; High affinity at 10X or 20X or both PRE concentrations in at least one cell line in the cell extract assay; High affinity in purified isoform assay
Conditions: Cell extract; PRE at 10X, 20X antibody concentration; Table 20
Method: Binding efficiency and specificity of the peptides PRE 2, 3, 4, 5, 6, 7, 8, 9, 10, 11, 12 and 13 (see Table 3) was also tested using cytoplasmic extracts from different cell lines expressing appropriate PKC isoforms as described for Example 1. Briefly, the protein cytoplasmic extracts were separated by electrophoresis and transferred onto nitrocellulose membranes by standard Western blotting procedures. The bands on the Western blots were detected with matching primary antibodies and alkaline phosphatase conjugated secondary antibody. The bands were then scanned and the relative density measurements obtained.
This procedure to assess the binding characteristics of the PREs is based on competition binding of the PRE with the primary anti-isoform PKC specific antibodies. The lower the measured band density, the greater the binding of the PRE to the PKC isoform. The PREs were added at 10 and 20 times (10×, 20×) the primary antibody concentration, according to classical competition between antigenic peptide and primary antibody. The following cell lines (obtained from the ATCC) were used: H661—NCI human lung carcinoma NSCLC; MDAMB231—human highly invasive breast cancer cell line from pleural effusion; LS180—human colon adenocarcinoma; LnCAP—human prostate adenocarcinoma; CCD16Lu—human lung fibroblasts; Du145—human prostate carcinoma brain metastasis, and T24—human bladder carcinoma.
In these cases, the 20× band density figures relative to control and 10× values were reliable.

| Substance | Affinity for PKC isoform α |
| --- | --- |
| Ac-AKGIQEVKGGDAQNLIGISI-NH2 [PRE 3] | H |
| Ac-AKGIQEVKGGKDAQNLIGISI-NH2 [PRE 5] | M |
| Ac-ISIGILNQADK-NH2 [PRE 10] | H/L |
| Ac-ISIGILQNADK-NH2 [PRE 7] | L |
| Ac-KDANQLIGISI-NH2 [PRE 6] | H/L |
| Ac-KDAQNLI-NH2 [PRE 12] | — |
| Ac-KDAQNLIGISI-NH2 [PRE 4, Ac-KDAQNLIGISI-NH2] | H |
| Ac-RDAQNLI-NH2 [PRE 13] | M/H |
| Ac-RDAQNLIGISI-NH2 [PRE 11] | H/L |
| Ac-isigilgnadk-NH2 [PRE 9] | M/L |
| ILEDKGGDAQNLIGISI [PRE 8] | M/L |
| RRKKGGKDFVVKR [PRE 1] | H |

Same assay, conditions: cell extracts

| Substance | affinity for PKC-α |
| --- | --- |
| Ac-KDAQNLIGISI-NH2 [PRE 4, Ac-KDAQNLIGISI-NH2] | strong affinity for PKC-α |
